Reference: US20260274985A1 (MYTHIC THERAPEUTICS, published 2026)

T1: TROP2 on TROP2-positive NCI-H1975 cells (human, UniProt P09758 27-323)
T1 sequence: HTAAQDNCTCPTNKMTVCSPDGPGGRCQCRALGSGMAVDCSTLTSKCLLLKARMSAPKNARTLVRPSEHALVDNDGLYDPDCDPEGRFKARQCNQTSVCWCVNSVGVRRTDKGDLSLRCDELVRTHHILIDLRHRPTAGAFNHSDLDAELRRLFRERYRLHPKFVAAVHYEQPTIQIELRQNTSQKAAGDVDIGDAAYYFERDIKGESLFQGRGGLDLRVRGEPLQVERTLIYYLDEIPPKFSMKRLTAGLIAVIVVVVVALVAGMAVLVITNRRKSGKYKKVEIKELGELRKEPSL


Target: T1, TROP2 on TROP2-positive NCI-H1975 cells
Experiment: cell-based or functional assay

Row | FOW H1975 (10 nM) | Binder
1 | 1.7 fold over parent antibody | MYT13290 (antibody, V domains shown) VH: QVQLQESGPGLVKPSETLSLTCTVSGGSISSYGVHWIRQPPGKGLEWIGVIWTSGVTDYNSALMGRVTISVDTSKNQFSLKLSSVTAADTAVYYCARDGDYDRYTHDYWGQGTLVTVSS VL: DIVMTQSPDSLAVSLGERATINCRASKSVSTSGYSYMHWYQQKPGQPPKLLIYLASNLESGVPDRFSGSGSGTDFTLTISSLQAEDVAVYYCHHSRELPYTFGQGTKLEIK
2 | 1.37 fold over parent antibody | MYT13374 (antibody, V domains shown) VH: QVQLQQSGSELKKPGASVKVSCKASGYTFTNHGMNWVKQAPGQGLKWMGWINTYTGEPTYTDDFKGRFAFSLDTSVSTAYLQISSLKADDTAVYFCARGGFGSSYWYFDVWGQGSLVTVSS VL: DIQLTQSPSSLSASVGDRVSITCKASQDVHIAVAWYQQKPGKAPKLLIYSHSYRYTGVPDRFSGSGSGTDFTLTISSLQPEDFAVYYCQQHYITPLTFGAGTKVEIK
3 | 1.13 fold over parent antibody | MYT13422 (antibody, V domains shown) VH: QVQLQQSGSELKKPGASVKVSCKASGYTFTNHGMNWVKQAPGQGLKWMGWINTYTGEPTYTDDFKGRFAFSLDTSVSTAYLQISSLKADDTAVYFCARGGFGSSYWYFDVWGQGSLVTVSS VL: DIQLTQSPSSLSASVGDRVSITCKASQDVHIAVAWYQQKPGKAPKLLIYSHSYRYTGVPDRFSGSGSGTDFTLTISSLQPEDFAVYYCQQHYHTPLTFGAGTKVEIK
4 | 1.29 fold over parent antibody | MYT13395 (antibody, V domains shown) VH: QVQLQQSGSELKKPGASVKVSCKASGYTFTNYGMNWVKQAPGQGLKWMGWINTYTGEPTYTDDHKGRFAFSLDTSVSTAYLQISSLKADDTAVYFCARGGFGSSYWYFDVWGQGSLVTVSS VL: DIQLTQSPSSLSASVGDRVSITCKASQDVSIAHAWYQQKPGKAPKLLIYSASHRYTGVPDRFSGSGSGTDFTLTISSLQPEDFAVYYCQQHYITPLTFGAGTKVEIK
5 | 1.07 fold over parent antibody | MYT13398 (antibody, V domains shown) VH: QVQLQQSGSELKKPGASVKVSCKASGYTFTNHGMNWVKQAPGQGLKWMGWINTYTGEPTYTDDFKGRFAFSLDTSVSTAYLQISSLKADDTAVYFCARGGFGSSYWYFDVWGQGSLVTVSS VL: DIQLTQSPSSLSASVGDRVSITCKASQDVSIAHAWYQQKPGKAPKLLIYSASYRYTGVPDRFSGSGSGTDFTLTISSLQPEDFAVYYCQQHYHTPLTFGAGTKVEIK
6 | 1.1 fold over parent antibody | MYT13402 (antibody, V domains shown) VH: QVQLQQSGSELKKPGASVKVSCKASGYTFTNYGMNWVKQAPGQGLKWMGWINTYTGEPTYTDHFKGRFAFSLDTSVSTAYLQISSLKADDTAVYFCARGGFGSSYWYFDVWGQGSLVTVSS VL: DIQLTQSPSSLSASVGDRVSITCKASQDVSIAHAWYQQKPGKAPKLLIYSASYRYTGVPDRFSGSGSGTDFTLTISSLQPEDFAVYYCQQHYHTPLTFGAGTKVEIK
7 | 1.13 fold over parent antibody | MYT13400 (antibody, V domains shown) VH: QVQLQQSGSELKKPGASVKVSCKASGYTFTNYGMNWVKQAPGQGLKWMGWINTYTGEPTHTDDFKGRFAFSLDTSVSTAYLQISSLKADDTAVYFCARGGFGSSYWYFDVWGQGSLVTVSS VL: DIQLTQSPSSLSASVGDRVSITCKASQDVSIAHAWYQQKPGKAPKLLIYSASYRYTGVPDRFSGSGSGTDFTLTISSLQPEDFAVYYCQQHYHTPLTFGAGTKVEIK
8 | 1.19 fold over parent antibody | MYT13392 (antibody, V domains shown) VH: QVQLQQSGSELKKPGASVKVSCKASGYTFTNYGMNWVKQAPGQGLKWMGWINTYTGEPTHTDDFKGRFAFSLDTSVSTAYLQISSLKADDTAVYFCARGGFGSSYWYFDVWGQGSLVTVSS VL: DIQLTQSPSSLSASVGDRVSITCKASQDVSIAHAWYQQKPGKAPKLLIYSASHRYTGVPDRFSGSGSGTDFTLTISSLQPEDFAVYYCQQHYITPLTFGAGTKVEIK
9 | 1.26 fold over parent antibody | MYT13377 (antibody, V domains shown) VH: QVQLQQSGSELKKPGASVKVSCKASGYTFTNYGMNWVKQAPGQGLKWMGWINTYTGEPTYTHDFKGRFAFSLDTSVSTAYLQISSLKADDTAVYFCARGGFGSSYWYFDVWGQGSLVTVSS VL: DIQLTQSPSSLSASVGDRVSITCKASQDVHIAVAWYQQKPGKAPKLLIYSHSYRYTGVPDRFSGSGSGTDFTLTISSLQPEDFAVYYCQQHYITPLTFGAGTKVEIK
10 | 1.34 fold over parent antibody | MYT13420 (antibody, V domains shown) VH: QVQLQQSGSELKKPGASVKVSCKASGYTFTNYGMNWVKQAPGQGLKWMGWINTYTGEPTYTDDFHGRFAFSLDTSVSTAYLQISSLKADDTAVYFCARGGFGSSYWYFDVWGQGSLVTVSS VL: DIQLTQSPSSLSASVGDRVSITCKASQDVHIAVAWYQQKPGKAPKLLIYSHSYRYTGVPDRFSGSGSGTDFTLTISSLQPEDFAVYYCHQHYITPLTFGAGTKVEIK
11 | 1.16 fold over parent antibody | MYT13401 (antibody, V domains shown) VH: QVQLQQSGSELKKPGASVKVSCKASGYTFTNYGMNWVKQAPGQGLKWMGWINTYTGEPTYTHDFKGRFAFSLDTSVSTAYLQISSLKADDTAVYFCARGGFGSSYWYFDVWGQGSLVTVSS VL: DIQLTQSPSSLSASVGDRVSITCKASQDVSIAHAWYQQKPGKAPKLLIYSASYRYTGVPDRFSGSGSGTDFTLTISSLQPEDFAVYYCQQHYHTPLTFGAGTKVEIK
12 | 1.18 fold over parent antibody | MYT13372 (antibody, V domains shown) VH: QVQLQQSGSELKKPGASVKVSCKASGYTFTNYGMNWVKQAPGQGLKWMGWINTYTGEPTYTDDFHGRFAFSLDTSVSTAYLQISSLKADDTAVYFCARGGFGSSYWYFDVWGQGSLVTVSS VL: DIQLTQSPSSLSASVGDRVSITCKASQDVHIAHAWYQQKPGKAPKLLIYSASYRYTGVPDRFSGSGSGTDFTLTISSLQPEDFAVYYCQQHYITPLTFGAGTKVEIK
13 | 1.24 fold over parent antibody | MYT13388 (antibody, V domains shown) VH: QVQLQQSGSELKKPGASVKVSCKASGYTFTNYGMNWVKQAPGQGLKWMGWINTYTGEPTYTDDFHGRFAFSLDTSVSTAYLQISSLKADDTAVYFCARGGFGSSYWYFDVWGQGSLVTVSS VL: DIQLTQSPSSLSASVGDRVSITCKASQDVHIAVAWYQQKPGKAPKLLIYSAHYRYTGVPDRFSGSGSGTDFTLTISSLQPEDFAVYYCQQHYITPLTFGAGTKVEIK
14 | 1.29 fold over parent antibody | MYT13416 (antibody, V domains shown) VH: QVQLQQSGSELKKPGASVKVSCKASGYTFTNYGMNWVKQAPGQGLKWMGWINTYTGEPTHTDDFKGRFAFSLDTSVSTAYLQISSLKADDTAVYFCARGGFGSSYWYFDVWGQGSLVTVSS VL: DIQLTQSPSSLSASVGDRVSITCKASQDVHIAVAWYQQKPGKAPKLLIYSHSYRYTGVPDRFSGSGSGTDFTLTISSLQPEDFAVYYCHQHYITPLTFGAGTKVEIK
15 | 1.33 fold over parent antibody | MYT13379 (antibody, V domains shown) VH: QVQLQQSGSELKKPGASVKVSCKASGYTFTNYGMNWVKQAPGQGLKWMGWINTYTGEPTYTDDHKGRFAFSLDTSVSTAYLQISSLKADDTAVYFCARGGFGSSYWYFDVWGQGSLVTVSS VL: DIQLTQSPSSLSASVGDRVSITCKASQDVHIAVAWYQQKPGKAPKLLIYSHSYRYTGVPDRFSGSGSGTDFTLTISSLQPEDFAVYYCQQHYITPLTFGAGTKVEIK
16 | 1.08 fold over parent antibody | MYT13404 (antibody, V domains shown) VH: QVQLQQSGSELKKPGASVKVSCKASGYTFTNYGMNWVKQAPGQGLKWMGWINTYTGEPTYTDDFHGRFAFSLDTSVSTAYLQISSLKADDTAVYFCARGGFGSSYWYFDVWGQGSLVTVSS VL: DIQLTQSPSSLSASVGDRVSITCKASQDVSIAHAWYQQKPGKAPKLLIYSASYRYTGVPDRFSGSGSGTDFTLTISSLQPEDFAVYYCQQHYHTPLTFGAGTKVEIK
17 | 1.06 fold over parent antibody | MYT13413 (antibody, V domains shown) VH: QVQLQQSGSELKKPGASVKVSCKASGYTFTNYGMNWVKQAPGQGLKWMGWINTYTGEPTYTDDFKHRFAFSLDTSVSTAYLQISSLKADDTAVYFCARGGFGSSYWYFDVWGQGSLVTVSS VL: DIQLTQSPSSLSASVGDRVSITCKASQDVSIAVAWYQQKPGKAPKLLIYSHHYRYTGVPDRFSGSGSGTDFTLTISSLQPEDFAVYYCQQHYITPLTFGAGTKVEIK
18 | 1.33 fold over parent antibody | MYT13435 (antibody, V domains shown) VH: QVQLQQSGSELKKPGASVKVSCKASGYTFTNYGMNWVKQAPGQGLKWMGWINTYTGEPTYTDDHKGRFAFSLDTSVSTAYLQISSLKADDTAVYFCARGGFGSSYWYFDVWGQGSLVTVSS VL: DIQLTQSPSSLSASVGDRVSITCKASQDVSIAVAWYQQKPGKAPKLLIYSHSHRYTGVPDRFSGSGSGTDFTLTISSLQPEDFAVYYCQQHYHTPLTFGAGTKVEIK
19 | 1.35 fold over parent antibody | MYT13366 (antibody, V domains shown) VH: QVQLQQSGSELKKPGASVKVSCKASGYTFTNHGMNWVKQAPGQGLKWMGWINTYTGEPTYTDDFKGRFAFSLDTSVSTAYLQISSLKADDTAVYFCARGGFGSSYWYFDVWGQGSLVTVSS VL: DIQLTQSPSSLSASVGDRVSITCKASQDVHIAHAWYQQKPGKAPKLLIYSASYRYTGVPDRFSGSGSGTDFTLTISSLQPEDFAVYYCQQHYITPLTFGAGTKVEIK
20 | 1.13 fold over parent antibody | MYT13403 (antibody, V domains shown) VH: QVQLQQSGSELKKPGASVKVSCKASGYTFTNYGMNWVKQAPGQGLKWMGWINTYTGEPTYTDDHKGRFAFSLDTSVSTAYLQISSLKADDTAVYFCARGGFGSSYWYFDVWGQGSLVTVSS VL: DIQLTQSPSSLSASVGDRVSITCKASQDVSIAHAWYQQKPGKAPKLLIYSASYRYTGVPDRFSGSGSGTDFTLTISSLQPEDFAVYYCQQHYHTPLTFGAGTKVEIK
21 | 1.16 fold over parent antibody | MYT13405 (antibody, V domains shown) VH: QVQLQQSGSELKKPGASVKVSCKASGYTFTNYGMNWVKQAPGQGLKWMGWINTYTGEPTYTDDFKHRFAFSLDTSVSTAYLQISSLKADDTAVYFCARGGFGSSYWYFDVWGQGSLVTVSS VL: DIQLTQSPSSLSASVGDRVSITCKASQDVSIAHAWYQQKPGKAPKLLIYSASYRYTGVPDRFSGSGSGTDFTLTISSLQPEDFAVYYCQQHYHTPLTFGAGTKVEIK
